According to patent US6861578B1, “Method for plant protection against insects or nematodes by transformation with a nucleic acid encoding equistatin” (Plant Research International B.V., priority 1997, dated 2005):

Columns and labels:
cathepsin D = cathepsin D (Homo sapiens, UniProt P07339); experiment: Cathepsin D inhibition, steady-state hydrolysis of chromophoric substrate; active site titration; type: biochemical
Protocol: Residual activity is expressed as percent of control activity in samples containing no inhibitor.
The kinetics of binding of equistatin to cathepsin D was performing using a synthetic substrate which contains a chromophore, such as a nitrophenylalanine residue, in the P1′ position. The assay sensitivity, afforded by H-Pro-Thr-Glu-Phe*Nph-Arg-Leu-OH (SEQ ID NO:8) as substrate, alowed us to use 6.4 nM concentration of the enzyme as a minimal concentration in the test.

trypsin = experiment: Screen of equistatin against serine proteinase trypsin; limited proteolysis; type: biochemical; conditions: screened against cathepsin D and trypsin
Protocol: Equistatin was isolated from sea anemone A. equina by a procedure that was described previously utilizing its inhibitory activity toward cysteine proteinase, papain (Lenarcic et al. (1997) J. Biol. Chem. 272: 13899). Besides cysteine proteinases, equistatin was screened for the inhibition of two other classes of proteinases, aspartic proteinases (cathepsin D) and serine proteinase (trypsin). […] 500 μg equistatin was incubated with 5 μg of β-trypsin in 0.5 ml of 0.1 M Tris/HCl buffer pH 8.0, for 40 min at 37° C. Reaction was stopped by the addition of trifluoroacetic acid. The 9-trypsin digest of equistatin was separated by high performance liquid chromatography (Milton Roy Co.) using a reverse phase Vydac C18 column equilibrated with 5% acetonicril containing 0.1% (v/v) trifluoroacetic acid. Elution was performed using a linear gradient of 80% (v/v) acetonitrile containing 0.1% (v/v) trifluoroacetic acid. Absorbance was monitored at 215 nm. Two major peaks were obtained on the reverse-phase. HPLC (FIG. 9B). The molecular weights, estimated by the SDS PAGE under non-reducing conditions, were about 7,000 and 14,000 (FIG. 10). Determination of the N-termini of the both fragments allowed them to be located in the sequence of the equistatin molecule shown schematically in FIG. 11. […]

[1] = system: Colorado potato beetle proteases; experiment: Protease activity of Colorado potato beetle larval gut extract at pH 3, FITC-hemoglobin; type: biochemical, Leptinotarsa decemlineata; design: inhibition of total protease activity / increase of inhibition by addition of equistatin to E64 / increase of inhibition by addition of equistatin to pepstatin: concentration or dose not given beside the values
Protocol: Adult western flower thrips (Frankliniella occidentalis) and leafmirer flies (Liriomyza trifolii) adult were harvested from a culture maintained on chrysanthemum plants and complete thrips and flies were homogenized in extraction on buffer (200 mM β-alanine-HCl, pH 3.5) in a volume of 5 times the weight of the insects. The buffer pH was at the previously determined pH optimum of protease activity towards hemoglobin. Final instar Colorado potato beetle larvae maintained on potato plants as described in example 5 were checked for gut aspartic protease activity by preparing a total gut extract in pH 3 buffer which is optimal for Colorado potato beetle aspartic proteases (200 mM glycine, pH 3). Guts were homogenized in 100 μl buffer per gut. Third instar western corn rootworm larvae maintained on corn roots were used to remove the guts. Ten guts were homogenized in 100 μl water and spinned twice to remove insoluble material. Two types of buffers were used in the enzymatic assay. One with a pH presumably favoring cysteine proteases (50 mM MES, pH 6.5; 0.6 mg/ml L-cysteine) and one for detecting aspartic proteases (200 mM glycine, pH 3). Supernatants were stored at −20° C.
2 μl gut extract was combined with 2 μl inhibitor (2 mM pepstatin in methanol, 4 mM E64 in water, 2 mg/ml recombinant equistatin in water. The concentration of the other proteinaceous inhibitors was not known exactly). Appropriate buffers were added to a final volume of 100 μl. After 15′ preincubation 20 μl substrate (5 mg/ml FITC-hemoglobin) was added and incubated for 30-45 min at 37 C.
Reaction was stopped by the addition of 100 μl 10% TCA. Tubes were centrifuged and 100 μl supernatant mixed with 100 μl 10 N NaOH was measured on a fluorimeter for the extent of hemoglobin hydrolysis. Measurements were done in duplicate on one (thrips, leafminer and western corn rootworm), or three (Colorado potato beetle) different gut extracts and varied by a maximum of +/−5%.

Chain of cathepsin D (P07339 65-412, species assumed): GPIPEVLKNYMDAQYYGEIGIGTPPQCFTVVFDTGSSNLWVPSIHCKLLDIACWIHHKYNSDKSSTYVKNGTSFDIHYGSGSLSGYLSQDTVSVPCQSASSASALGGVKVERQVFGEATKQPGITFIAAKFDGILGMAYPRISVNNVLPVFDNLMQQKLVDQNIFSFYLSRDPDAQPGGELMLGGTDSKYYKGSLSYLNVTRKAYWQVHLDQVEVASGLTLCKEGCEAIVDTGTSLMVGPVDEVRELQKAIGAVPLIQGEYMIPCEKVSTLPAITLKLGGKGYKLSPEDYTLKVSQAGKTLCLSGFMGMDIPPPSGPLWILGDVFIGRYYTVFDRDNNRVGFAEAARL

B1: equistatin: cysteine/aspartic protease inhibitor from sea anemone Actinia equina with three type I repeated thyroglobulin domains; purified or recombinant from E. coli (protein)
chain: SLTKCQQLQASANSGLIGTYVPQCKETGEFEEKQCWGSTGYCWCVDEDGKEILGTKIRGSPDCSRRKAALTLCQMMQAIIVNVPGWCGPPSCKADGSFDEVQCCASNGECYCVDKKGKELEGTRQQGRPTCERHLSECEEARIKAHSNSLRVEMFVPECLEDGSYNPVQCWPSTGYCWCVDEGGVKVPGSDVRFKRPTC
modifications: left off: large carriers; small tags and cut ends
notes: purified or recombinant from E. coli
Ki (cathepsin D; cathepsin D, steady state velocity, chromophoric substrate): 0.3 nM
equistatin needed for the saturation of 1 mol of cathepsin D (cathepsin D; titration of cathepsin D with equistatin (FIG. 12)): 1 mol
inhibitory effect on trypsin (screen) (trypsin): observed only when it was reacting with cathepsin D
increase of inhibition by addition of equistatin to E64 ([1]; Colorado potato beetle, pH3): 42%
increase of inhibition by addition of equistatin to pepstatin ([1]; Colorado potato beetle, pH3): 12%
inhibition of both aspartic and cysteine protease activity ([1]; Colorado potato beetle, pH3): more than 50%
inhibition of total protease activity ([1]; Colorado potato beetle, pH3): 62%
residual protease activity ([1]; colorado potato beetle pH 3, recombinant equistatin): 36%
